Assay results as given in publication PMC7526519 (2020).
Residue numbers refer to the chain shown, from its start.

B1: dog ACE2 ectodomain fused with mouse Fc (Fc fusion)
chain: QSTEDLVKTFLEKFNYEAEELSYQSSLASWNYNINITDENVQKMNNAGAKWSAFYEEQSKLAKTYPLEEIQDSTVKRQLRALQHSGSSVLSADKNQRLNTILNSMSTVYSTGKACNPSNPQECLLLEPGLDDIMENSKDYNERLWAWEGWRSEVGKQLRPLYEEYVALKNEMARANNYEDYGDYWRGDYEEEWENGYNYSRNQLIDDVELTFTQIMPLYQHLHAYVRTKLMDTYPSYISPTGCLPAHLLGDMWGRFWTNLYPLTVPFGQKPNIDVTNAMVNQSWDARKIFKEAEKFFVSVGLPNMTQEFWGNSMLTEPSDSRKVVCHPTAWDLGKGDFRIKMCTKVTMDDFLTAHHEMGHIQYDMAYAAQPFLLRNGANEGFHEAVGEIMSLSAATPNHLKNIGLLPPSFFEDSETEINFLLKQALTIVGTLPFTYMLEKWRWMVFKGEIPKDQWMKTWWEMKRNIVGVVEPVPHDETYCDPASLFHVANDYSFIRYYTRTIYQFQFQEALCQIAKHEGPLHKCDISNSSEAGQKLLEMLKLGKSKPWTYALEIVVGAKNMDVRPLLNYFEPLFTWLKEQNRNSFVGWNTDWSPYADQSIKVRISLKSALGEKAYEWNNNEMYLFRSSIAYAMRQYFSEVKNQTIPFVEDNVWVSDLKPRISFNFSVTSPGNVSDIIPRTEVEEAIRMYRSRINDVFRLDDNSLEFLGIQPTPGPPYEPPVT
B2: horse ACE2 ectodomain fused with mouse Fc (Fc fusion)
chain: QSTTEDLAKTFLEKFNSEAEELSHQSSLASWSYNTNITDENVQKMNEAGARWSAFYEEQCKLAKTYPLEEIQNLTVKRQLQALQQSGSSVLSADKSKLNEILNTMSTIYSTGKVCNPSNPQECLLLEPGLDAIMENSKDYNQRLWAWEGWRSEVGKQLRPLYEEYVVLKNEMARANNYEDYGDYWRGDYEAEGPSGYDYSRDQLIEDVERTFAEIKPLYEHLHAYVRAKLMDTYPSHINPTGCLPAHLLGDMWGRFWTNLYSLTVPFGQKPNIDVTDAMVDQSWDAKRIFEEAEKFFVSVGLPNMTQGFWENSMLTEPGDGRKVVCHPTAWDLGKGDFRIKMCTKVTMDDFLTAHHEMGHIQYDMAYAVQPYLLRNGANEGFHEAVGEIMSLSAATPNHLKAIGLLPPDFYEDSETEINFLLKQALTIVGTLPFTYMLEKWRWMVFKGEIPKEEWMKKWWEMKREIVGVVEPVPHDETYCDPAALFHVANDYSFIRYYTRTIYQFQFQEALCQTAKHEGPLHKCDISNSTEAGQKLLQMLSLGKSEPWTLALERIVGVKNMDVRPLLNYFEPLFTWLKDQNKNSFVGWSTNWSPYADQSIKVRISLKSALGEKSYEWNDNEMYLFQSSVAYAMRVYFLKAKNQTILFGEEDVWVSDLKPRISFNFFVTSPKNASDIIPRTDVEEAIRMSRSRINDAFRLDDNTLEFLGIQPTLGPPYQPPVT
B3: cat ACE2 ectodomain fused with mouse Fc (Fc fusion)
chain: QSTTEELAKTFLEKFNHEAEELSYQSSLASWNYNTNITDENVQKMNEAGAKWSAFYEEQSKLAKTYPLAEIHNTTVKRQLQALQQSGSSVLSADKSQRLNTILNAMSTIYSTGKACNPNNPQECLLLEPGLDDIMENSKDYNERLWAWEGWRAEVGKQLRPLYEEYVALKNEMARANNYEDYGDYWRGDYEEEWTDGYNYSRSQLIKDVEHTFTQIKPLYQHLHAYVRAKLMDTYPSRISPTGCLPAHLLGDMWGRFWTNLYPLTVPFGQKPNIDVTDAMVNQSWDARRIFKEAEKFFVSVGLPNMTQGFWENSMLTEPGDSRKVVCHPTAWDLGKGDFRIKMCTKVTMDDFLTAHHEMGHIQYDMAYAVQPFLLRNGANEGFHEAVGEIMSLSAATPNHLKTIGLLSPGFSEDSETEINFLLKQALTIVGTLPFTYMLEKWRWMVFKGEIPKEQWMQKWWEMKREIVGVVEPVPHDETYCDPASLFHVANDYSFIRYYTRTIYQFQFQEALCRIAKHEGPLHKCDISNSSEAGKKLLQMLTLGKSKPWTLALEHVVGEKKMNVTPLLKYFEPLFTWLKEQNRNSFVGWNTDWRPYADQSIKVRISLKSALGDEAYEWNDNEMYLFRSSVAYAMREYFSKVKNQTIPFVEDNVWVSNLKPRISFNFFVTASKNVSDVIPRSEVEEAIRMSRSRINDAFRLDDNSLEFLGIQPTLSPPYQPPVT
B4: alpaca ACE2 ectodomain fused with mouse Fc (Fc fusion)
chain: QSTTEELAKTFLKEFNHEAEDRSYQSSLASWNYNTNITDENVQKMNDARAKWSTFYEEKSKAAKIYPLEEIENVTLKRQLQALQQSGASALSADKSKRLTTILNTMSSIYSSGEVCDPNNPQECLVLEPGLDDIMENSKDYNQRLWAWEGWRAEVGKQLRPLYEEYVVLKNEMARANNYEDYGDYWRGDYEVMWAGDYDYSRDQLMGDVEHTFAEIKPLYEHLHAYVRAKLMDAYPSRISPTGCLPAHLLGDMWGRFWTNLYSLTVPFGQKPNIDVTEAMENQSWDAKRIFKEAEKFFVSIGLPNMTQGFWDNSMLTEPGDGRKVVCHPTAWDLGKGDFRIKMCTKVTMDDFLTAHHEMGHIQYDMAYAIQPFLLRNGANEGFHEAVGEIMSLSAATPHYLKALGLLPADFYEDSETEINFLLKQALTIVGTLPFTYMLEKWRWMVFKGEIPKEQWMQKWWEMKREIVGVVEPLPHDETYCDPACLFHVAEDYSFIRYYTRTIYQFQFHEALCQIAKHEGPLYKCDISNSTEAGQKLLQMLSLGKSEPWTLALEALVGVKTMDVKPLLNYFEPLLTWLKDQNRNSFVGWSTDWTPYTDQSIKVRISLKSALGDKAYEWNDNEMYLFRSSLAYAMRNYFLTVQKQTILFGVEDVWVSDLKPRISFSFFVTSPKNVSDIIPRTEVEKAIRMSRSRINDAFRLDDNSLEFLGIQPTLGPPYEPP
B5: fulvous fruit bat ACE2 ectodomain fused with mouse Fc (Fc fusion)
chain: QSTPEELAKTFLEKFNTEAEDLFYQSSLASWDFNTNIIDENVQKMSKARATWSAFYDEQSKLAKTYQLDEIQDPELKLQLRILQQSGSSTLSADKTKRLNDILNTMSTIYSTGKICQPNNSQECLLLEPGLDDIMENSKDYSQRLWAWESWRSEVGKQLRPYYEEYVVLKNEMARGENYEDYGDYWRGDYETEGINGSAYTRDQLIEDVDRIFTEIKPLYEQLHAYVRTKLMDAYPSHISPTGCLPAHLLGDMWGRFWINLYPLTVPFEQKPNIDVTDEMVNQNWNAKRIFKEAEKFFVSLGLPNMTETFWEKSVLTEPDNDQKVACHPTAWDLGKGDFRIIMCTKVKMEDFLTAHHEMGHIQYYMAYATQPYLLRDGANEGFHEAVGEVISLSVATPNHLKNMGLLPPDFYEDNETEINFLLKQALNVVGTLPFTYMLEKWRWMVFKGEIPKEQWMEKWWEMKRELVGVVEPLPHDETYCDPASLFHVANDYSFIRYYTRTIFEFQFLEALCQIAQHEGPLYKCDIANSTEAGKKLHQMLSLGKSKPWTLALESIAGTKNMDVRPLLNYFEPLFTWLKEKNRNSFVGWSTDWSPYSGQSIKVRISLKAALGEKAYEWNDNEMYLFKSSIAYSLREYFLKVKNLTIPFGEEDVWVSDLKPRISFNFFVTSPQNVSEFIPRTEVEGAIRMSRSRINDAFRLDDDTLEFLGIEPTLGTPYQPPVT
B6: wild Bactrian camel ACE2 ectodomain fused with mouse Fc (Fc fusion)
chain: QSTTEELAKTFLEEFNHEAEDLSYQSSLASWNYNTNITDENVQKMNDARAKWSTFYEEKSKTAKTYPLEEIQNVTLKRQLQALQQSGASALSADKSKRLTTVLSTMSTIYSSGEVCDPNNPQECLVLEPGLDDIMENSKDYNQRLWAWEGWRAEVGKQLRPLYEEYVVLKNEMARANNYEDYGDYWRGDYEVMWAGDYDYSRDQLMGDVEHTFAEIKPLYEHLHAYVRAKLMDVYPSHISPTGCLPAHLLGDMWGRFWTNLYSLTVPFGQKPNIDVTEAMENQSWDAKRIFKEAEKFFVSIGLPNMTQGFWDNSMLTEPGDGRKVVCHPTAWDLGKGDFRIKMCTKVTMDDFLTAHHEMGHIQYDMAYAIQPFLLRNGANEGFHEAVGEIMSLSAATPHYLKALGLLPADFYEDSETEINFLLKQALTIVGTLPFTYMLEKWRWMVFKGEIPKEQWMQKWWEMKREIVGVVEPLPHDETYCDPACLFHVAEDYSFIRYYTRTIYQFQFHEALCQIAKHEGPLYKCDISNSTEAGQKLLQMLSLGKSEPWTLALEGLVGVKTMDVKPLLNYFEPLLTWLKDQNRNSFVGWSTDWTPYTDQSIKVRISLKSALGDKAYEWNDNEMYLFQSSLAYAMRKYFLKVQNQTILFGVEDVWVSDLKPRISFSFFVTSPKNVSDIIPRTEVEEAIRMSRSRINDAFRLDDNSLEFLGIQPTLGPPYEPPVT
B7: goat ACE2 ectodomain fused with mouse Fc (Fc fusion)
chain: QSTTEEQAKTFLEKFNHEAEDLSYQSSLASWNYNTNITDENVQKMNEARAKWSAFYEEQSRMARTYSLEEIQNLTLKRQLKALQHSGTSVLSAEKSKRLNMILNKMSTIYSTGKVLDPNTQECLALEPGLDDIMENSRDYNRRLWAWEGWRAEVGKQLRPLYEEYVVLENEMARANNYEDYGDYWRGDYEVTGAGDYDYSRDQLMKDVERTFAEIKPLYEQLHAYVRAKLMNTYPSYISPTGCLPAHLLGDMWGRFWTNLYSLTVPFEHKPSIDVTEKMKNQSWDAERIFKEAEKFFVSIGLPYMTQGFWNNSMLTEPGDGRKVVCHPTAWDLGKGDFRIKMCTKVTMDDFLTAHHEMGHIQYDMAYATQPYLLRNGANEGFHEAVGEIMSLSAATPHYLKALGLLAPDFYEDNETEINFLLKQALTIVGTLPFTYMLEKWRWMVFKGEIPKQQWMEKWWEMKREIVGVVEPLPHDETYCDPACLFHVAEDYSFIRYYTRTIYQFQFHEALCKTAKHEGALFKCDISNSTEAGQRLLQMLRLGKSEPWTLALENIVGIKTMDVKPLLNYFEPLFTWLKEQNRNSFVGWSTEWTPYSDQSIKVRISLKSALGENAYEWNDNEMYLFRSSVAYAMRKYFLEDRNETIPFGEENVWVSDKKPRISFKFFVTSPNNVSDIIPRTEVENAIRLCRDRINDAFQLDDNSLEFLGIQPTLRPPYEPPVT
B8: sheep ACE2 ectodomain fused with mouse Fc (Fc fusion)
chain: B7 chain with E6G, M101T, A213E, N232D, N311D, E639K, D640E
B9: bovine ACE2 ectodomain fused with mouse Fc (Fc fusion)
chain: QSTTEEQAKTFLEKFNHEAEDLSYQSSLASWNYNTNITDENVQKMNEARAKWSAFYEEQSRMAKTYSLEEIQNLTLKRQLKALQHSGTSALSAEKSKRLNTILNKMSTIYSTGKVLDPNTQECLALEPGLDDIMENSRDYNRRLWAWEGWRAEVGKQLRPLYEEYVVLENEMARANNYEDYGDYWRGDYEVTGAGDYDYSRDQLMKDVERTFAEIKPLYEQLHAYVRAKLMHTYPSYISPTGCLPAHLLGDMWGRFWTNLYSLTVPFEHKPSIDVTEKMENQSWDAERIFKEAEKFFVSISLPYMTQGFWDNSMLTEPGDGRKVVCHPTAWDLGKGDFRIKMCTKVTMDDFLTAHHEMGHIQYDMAYAAQPYLLRNGANEGFHEAVGEIMSLSAATPHYLKALGLLAPDFHEDNETEINFLLKQALTIVGTLPFTYMLEKWRWMVFKGEIPKQQWMEKWWEMKREIVGVVEPLPHDETYCDPACLFHVAEDYSFIRYYTRTIYQFQFHEALCKTAKHEGALFKCDISNSTEAGQRLLQMLRLGKSEPWTLALENIVGIKTMDVKPLLNYFEPLFTWLKEQNRNSFVGWSTEWTPYSDQSIKVRISLKSALGENAYEWNDNEMYLFQSSVAYAMRKYFSEARNETVLFGEDNVWVSDKKPRISFKFFVTSPNNVSDIIPRTEVENAIRLSRDRINDVFQLDDNSLEFLGIQPTLGPPYEPPVT

target: SARS-CoV receptor binding domain (RBD), His-tagged (SARS-CoV, UniProt P59594 306-527); test: SPR

B1 was tested. Which Kd did it give?
Its Kd is 20 nM.

How did the Kd turn out when B2 was run?
Its Kd is 141 nM.

How did the Kd turn out when B3 was run?
The Kd was 69.9 nM.

B4 was tested. Which Kd did it give?
The Kd was 54.9 nM.

How did the Kd turn out when B5 was run?
Its Kd is 412 nM.

B6 was tested. Which Kd did it give?
The Kd was 69.1 nM.

How did the Kd turn out when B7 was run?
Its Kd is 308 nM.

B8 was tested. Which Kd did it give?
The Kd was 157 nM.

How did the Kd turn out when B9 was run?
The Kd was 89.8 nM.

target: SARS-CoV-2 receptor binding domain (RBD), His-tagged (SARS-CoV-2, UniProt P0DTC2 319-541); test: SPR

B1 was tested. Which Kd did it give?
The Kd was 98.9 nM.

B2 was tested. Which Kd did it give?
The Kd was 133 nM.

Which Kd does the source give for B3 here?
The Kd was 85.7 nM.

Which Kd does the source give for B5 here?
Its Kd is 1130 nM.

B6 was tested. Which Kd did it give?
The Kd was 272 nM.

For B7, which Kd is on record?
Its Kd is 157 nM.

B8 was tested. Which Kd did it give?
Its Kd is 137 nM.

Which Kd does the source give for B9 here?
Its Kd is 73.7 nM.
